Source: PMC6156662 (Proceedings of the National Academy of Sciences of the …, 2018)

What was measured:
[1] = system: cells stably expressing HA-CHMP4C constructs, with siRNA; assay: Abscission checkpoint activation by drug; format: cell-based
[2] = system: HCT116^δCHMP4C cells; assay: Cell growth assay with aphidicolin; format: cell-based; details: 30 nM aphidicolin
[3] = system: HCT116^WT and HCT116^δCHMP4C cells; assay: Cell-cycle arrest by flow cytometry, mitomycin C; format: cell-based; details: 200 ng/mL mitomycin C, overnight
[4] = system: HCT116^WT and HCT116^δCHMP4C cells; assay: Mitotic arrest by flow cytometry and Western blotting, nocodazole; format: cell-based; details: 50 ng/mL nocodazole
[5] = system: HCT116 cells; details: 0.1 μM reversine, cells with defective abscission checkpoint
[6] = system: HCT116^WT cells; details: 0.1 μM reversine, 7 d
[7] = system: HCT116^δCHMP4C cells; assay: Cell growth assay with reversine, HCT116^δCHMP4C; format: cell-based; details: 0.1 μM reversine
[8] = system: HCT116^WT cells; details: 0.1 μM reversine, 48 h; <37 or >48 chromosomes; DMSO 1%
[9] = system: HCT116^δCHMP4C cells; assay: Karyotyping, extreme aneuploidy in HCT116^δCHMP4C; format: cell-based; details: 0.1 μM reversine; for protection against reversine-induced aneuploidy: reexpression in HCT116^δCHMP4C
[10] = system: HCT116 cells; assay: Anaphase chromosome missegregation; format: cell-based; details: low-dose (0.1 μM) reversine, or p53 depletion by shRNA
[11] = system: full-length ALIX; assay: Yeast two-hybrid β-galactosidase assay with ALIX; details: full-length CHMP4C, mean ± SD, n = 3
[12] = system: midbody of HeLa cells; assay: HA-CHMP4C midbody recruitment; details: with or without nucleoporin depletion
[13] = system: HeLa mCherry-tubulin cells; assay: Midbody abscission time, live-cell imaging; details: siCHMP4C background
[14] = system: HeLa cells; assay: Abscission checkpoint activity; details: siCHMP4C; Nup153/Nup50 partial depletion; midbody-arrested cells
[15] = system: HeLa cells stably expressing YFP-Lap2β; assay: Resolution time of YFP-Lap2β chromatin bridges, live-cell imaging; details: siCHMP4C, endogenous CHMP4C 685 min
[16] = system: HCT116^δCHMP4C cells; assay: DNA damage: 53BP1 foci; format: cell-based; details: reexpression in HCT116^δCHMP4C
[17] = system: HCT116 cells; assay: Cell growth assay after p53 depletion; format: cell-based; details: p53 shRNA
[18] = construct expressed in HCT116^δCHMP4C

`C[C@@]1(CO)[C@H](O)CC[C@@]2(C)[C@H]1CC[C@H]1C[C@@H]3C[C@@]12CC[C@]3(O)CO` [aphidicolin, reference compound] was tested, and the “activation of the abscission checkpoint” value ([1]; 30 nM aphidicolin, 24 h (replication stress)) was “triggers the abscission checkpoint in a CHMP4C-dependent manner” and the “effect on proliferation” value ([2]; continuous) was “reduced the proliferation of HCT116^δCHMP4C cells nearly twofold compared with HCT116^WT cells”.

For `CO[C@@]12[C@H](COC(N)=O)C3=C(C(=O)C(C)=C(N)C3=O)N1C[C@@H]1N[C@@H]12` [mitomycin C], the “G2/M cell-cycle arrest” value [3] was “normal in HCT116^δCHMP4C cells”.

In the case of `COC(=O)Nc1nc2cc(C(=O)c3cccs3)ccc2[nH]1` [nocodazole], the “mitotic / G2/M arrest” value [4] is reported as “did not observe a failure of HCT116^δCHMP4C cells to arrest”.

`c1nc2nc(Nc3ccc(N4CCOCC4)cc3)nc(NC3CCCCC3)c2[nH]1` [reversine] was tested, and the “activation of the abscission checkpoint” value ([1]; 0.1 μM reversine, 24 h) was “activated the abscission checkpoint in a CHMP4C-dependent fashion”, the “micronuclei” value [5] was “did display a higher proportion of micronuclei” and the “multinucleation” value [5] was “did not induce a multinucleation phenotype”. For the same molecule, the “reduction of cell growth” value [6] was “reduced HCT116^WT cell growth only modestly”, the “reduction of cell growth” value ([7]; over 7-d period) was “at least 70%” and the “cells with extreme aneuploidy” value [8] was 7%. The “cells with extreme aneuploidy” value ([9]; 48 h, <37 or >48 chromosomes, DMSO 4%) was 23% and the “anaphase chromosome missegregation” value [10] was “doubled the frequency of anaphase chromosome missegregation”.

B1: A232T full-length CHMP4C (protein, UniProt Q96CF2 1-233, looked up, variant A232T)
chain: MSKLGKFFKGGGSSKSRAAPSPQEALVRLRETEEMLGKKQEYLENRIQREIALAKKHGTQNKRAALQALKRKKRFEKQLTQIDGTLSTIEFQREALENSHTNTEVLRNMGFAAKAMKSVHENMDLNKIDDLMQEITEQQDIAQEISEAFSQRVGFGDDFDEDELMAELEELEQEELNKKMTNIRLPNVPSSSLPAQPNRKPGMSSTARRSRAASSQRAEEEDDDIKQLAAWTT
modifications: full-length
B1 was tested, and the “interaction with ALIX” value [11] was “significantly reduced the interaction between full-length CHMP4C and ALIX”.

B2: L228A with W231A full-length CHMP4C (protein, UniProt Q96CF2 1-233, looked up, variant L228A W231A)
chain: MSKLGKFFKGGGSSKSRAAPSPQEALVRLRETEEMLGKKQEYLENRIQREIALAKKHGTQNKRAALQALKRKKRFEKQLTQIDGTLSTIEFQREALENSHTNTEVLRNMGFAAKAMKSVHENMDLNKIDDLMQEITEQQDIAQEISEAFSQRVGFGDDFDEDELMAELEELEQEELNKKMTNIRLPNVPSSSLPAQPNRKPGMSSTARRSRAASSQRAEEEDDDIKQAAAAAT
modifications: full-length
For B2, the “interaction with ALIX” value [11] was “complete loss of ALIX binding”.

B3: HA-CHMP4C^T232: HA-CHMP4C full length siRNA-resistant T232 rs35094336 mutant (protein, UniProt Q96CF2 1-233, looked up, variant A232T)
chain: MSKLGKFFKGGGSSKSRAAPSPQEALVRLRETEEMLGKKQEYLENRIQREIALAKKHGTQNKRAALQALKRKKRFEKQLTQIDGTLSTIEFQREALENSHTNTEVLRNMGFAAKAMKSVHENMDLNKIDDLMQEITEQQDIAQEISEAFSQRVGFGDDFDEDELMAELEELEQEELNKKMTNIRLPNVPSSSLPAQPNRKPGMSSTARRSRAASSQRAEEEDDDIKQLAAWTT
modifications: full-length HA tag
With B3 the “recruitment to midbody” value [12] was “recruited to the midbody at normal levels”, the “abscission rate under normal growth conditions” value [13] was “proceeded through abscission more rapidly under normal growth conditions” and the “abscission checkpoint activity” value [14] was “does not support the abscission checkpoint”. For the same molecule, the “chromatin bridge resolution time, median” value [15] was 200 min and the “protection against reversine-induced aneuploidy” value [9] was “but not HA-CHMP4C^T232, protected against reversine-induced increases in aneuploidy”.

B4: HA-CHMP4C^A232: HA-CHMP4C full length siRNA-resistant wild type, reference protein (protein, UniProt Q96CF2 1-233, looked up)
chain: MSKLGKFFKGGGSSKSRAAPSPQEALVRLRETEEMLGKKQEYLENRIQREIALAKKHGTQNKRAALQALKRKKRFEKQLTQIDGTLSTIEFQREALENSHTNTEVLRNMGFAAKAMKSVHENMDLNKIDDLMQEITEQQDIAQEISEAFSQRVGFGDDFDEDELMAELEELEQEELNKKMTNIRLPNVPSSSLPAQPNRKPGMSSTARRSRAASSQRAEEEDDDIKQLAAWAT
modifications: full-length HA tag
B4 was tested, and the “rescue of growth defect under aphidicolin” value [2, 18] was “rescued by expression of HA-CHMP4C^A232”, the “recruitment to midbody” value [12] was “recruited to the midbody at normal levels” and the “restoration of growth in presence of reversine” value [7, 18] was “restored by the expression of HA-CHMP4C^A232”. For the same molecule, the “abscission checkpoint activity” value [14] was “checkpoint activity was rescued in cells that expressed HA-CHMP4C^A232”, the “DNA damage, 53BP1 foci” value [16] was “reduced to control levels upon reexpression of HA-CHMP4C^A232” and the “chromatin bridge resolution time, median” value [15] was 800 min. For the same molecule, the “protection against reversine-induced aneuploidy” value [9] was “protected against reversine-induced increases in aneuploidy” and the “growth after p53 depletion” value [17] was “reversed upon reexpression of CHMP4C^A232”.
